Measured values taken from patent US20250002610A1 (Genmab, published 2025).

T1: human FAPα (Fibroblast activation protein alpha), cell surface expressed (human, UniProt Q12884 1-760)
T1 construct: Endogenous on human lung fibroblasts and CAFs
T1 sequence: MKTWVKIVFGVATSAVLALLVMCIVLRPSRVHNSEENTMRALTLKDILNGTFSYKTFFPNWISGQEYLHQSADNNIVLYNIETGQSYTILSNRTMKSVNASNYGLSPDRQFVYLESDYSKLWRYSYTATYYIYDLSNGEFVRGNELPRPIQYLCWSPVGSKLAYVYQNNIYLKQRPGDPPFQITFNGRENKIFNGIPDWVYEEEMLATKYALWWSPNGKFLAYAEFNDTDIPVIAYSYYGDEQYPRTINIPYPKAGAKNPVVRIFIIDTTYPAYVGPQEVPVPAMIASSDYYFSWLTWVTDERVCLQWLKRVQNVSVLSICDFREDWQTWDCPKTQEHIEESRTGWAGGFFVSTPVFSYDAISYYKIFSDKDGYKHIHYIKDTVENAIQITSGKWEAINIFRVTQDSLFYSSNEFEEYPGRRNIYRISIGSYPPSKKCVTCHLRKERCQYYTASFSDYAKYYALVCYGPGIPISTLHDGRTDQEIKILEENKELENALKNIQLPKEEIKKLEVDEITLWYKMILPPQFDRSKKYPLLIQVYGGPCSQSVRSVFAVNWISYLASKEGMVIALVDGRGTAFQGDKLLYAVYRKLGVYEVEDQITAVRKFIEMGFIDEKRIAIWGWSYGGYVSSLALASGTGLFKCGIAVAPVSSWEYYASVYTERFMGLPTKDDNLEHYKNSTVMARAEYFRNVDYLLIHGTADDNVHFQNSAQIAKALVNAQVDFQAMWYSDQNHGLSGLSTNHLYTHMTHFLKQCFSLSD

T2: cynomolgus monkey DR4 with death domain deletion on ExpiCHO-S cells (cynomolgus monkey (Macaca fascicularis))
T2 construct: also called cynomolgus DR4
T2 chain: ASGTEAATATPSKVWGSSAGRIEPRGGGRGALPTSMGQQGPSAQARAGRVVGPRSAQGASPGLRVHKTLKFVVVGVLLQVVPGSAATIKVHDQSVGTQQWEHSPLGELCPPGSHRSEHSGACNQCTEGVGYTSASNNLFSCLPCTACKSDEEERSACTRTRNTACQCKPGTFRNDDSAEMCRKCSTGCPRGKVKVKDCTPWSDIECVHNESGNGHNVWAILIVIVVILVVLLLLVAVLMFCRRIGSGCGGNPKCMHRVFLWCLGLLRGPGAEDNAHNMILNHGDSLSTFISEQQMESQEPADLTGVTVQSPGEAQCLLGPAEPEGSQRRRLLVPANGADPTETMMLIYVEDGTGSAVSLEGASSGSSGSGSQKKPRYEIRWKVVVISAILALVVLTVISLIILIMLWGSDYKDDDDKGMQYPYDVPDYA

B1: IgG1-FAP5-FEAL (antibody)
heavy: QVQLQQSGAELARPGASVNLSCLASGYTFTNNGINWLKQRTGQGLEWIGEIYPRSTNTLYNEKFKGKATLTADRSSNTAYMELRSLTSEDSAVYFCARTLTAPFAFWGQGTLVTVSSASTKGPSVFPLAPSSKSTSGGTAALGCLVKDYFPEPVTVSWNSGALTSGVHTFPAVLQSSGLYSLSSVVTVPSSSLGTQTYICNVNHKPSNTKVDKRVEPKSCDKTHTCPPCPAPEFEGGPSVFLFPPKPKDTLMISRTPEVTCVVVAVSHEDPEVKFNWYVDGVEVHNAKTKPREEQYNSTYRVVSVLTVLHQDWLNGKEYKCKVSNKALPAPIEKTISKAKGQPREPQVYTLPPSREEMTKNQVSLTCLVKGFYPSDIAVEWESNGQPENNYKTTPPVLDSDGSFLLYSKLTVDKSRWQQGNVFSCSVMHEALHNHYTQKSLSLSPG
light: QIVLTQSPAIMSASPGELVTMTCSASSGVNFMHWYQQLSGTSPKRWIFDTSKLASGVPARFSGSGSGTSYSLTISSMEAEDAATYYCQQWSFNPPTFGGGTKLEIKRTVAAPSVFIFPPSDEQLKSGTASVVCLLNNFYPREAKVQWKVDNALQSGNSQESVTEQDSKDSTYSLSSTLTLSKADYEKHKVYACEVTHQGLSSPVTKSFNRGEC
notes: Prior art clone FAP5 (US20090304718A1) with FEAL constant region
B2: BisG1-DR4-FEAL/b12-FEAR (bispecific antibody, human IgG1, kappa, lambda)
heavy 1: QVQLQESGPGLVKPSGTLSLTCAVSGGSISSYSWWSWIRQPPGKGLEWIGELYHSGSTNYNPSLKSRVTISVDKSKNQFSLKLRSVTAADTAVYYCVRGVATIDYWGQGTLVTVSSASTKGPSVFPLAPSSKSTSGGTAALGCLVKDYFPEPVTVSWNSGALTSGVHTFPAVLQSSGLYSLSSVVTVPSSSLGTQTYICNVNHKPSNTKVDKRVEPKSCDKTHTCPPCPAPEFEGGPSVFLFPPKPKDTLMISRTPEVTCVVVAVSHEDPEVKFNWYVDGVEVHNAKTKPREEQYNSTYRVVSVLTVLHQDWLNGKEYKCKVSNKALPAPIEKTISKAKGQPREPQVYTLPPSREEMTKNQVSLTCLVKGFYPSDIAVEWESNGQPENNYKTTPPVLDSDGSFLLYSKLTVDKSRWQQGNVFSCSVMHEALHNHYTQKSLSLSPG
light 1: QSALTQPPSASGSPGQSVTISCTGTSSDVGGYNFVSWYQQDPGKAPKLLIYEVTKRPSGVPDRFSGSKSGNTASLTVSGLQAEDEADYYCSSYAGSNNVMFGGGTKLTVLGQPKAAPSVTLFPPSSEELQANKATLVCLISDFYPGAVTVAWKADSSPVKAGVETTTPSKQSNNKYAASSYLSLTPEQWKSHRSYSCQVTHEGSTVEKTVAPTECS
heavy 2: QVQLVQSGAEVKKPGASVKVSCQASGYRFSNFVIHWVRQAPGQRFEWMGWINPYNGNKEFSAKFQDRVTFTADTSANTAYMELRSLRSADTAVYYCARVGPYSWDDSPQDNYYMDVWGKGTTVIVSSASTKGPSVFPLAPSSKSTSGGTAALGCLVKDYFPEPVTVSWNSGALTSGVHTFPAVLQSSGLYSLSSVVTVPSSSLGTQTYICNVNHKPSNTKVDKRVEPKSCDKTHTCPPCPAPEFEGGPSVFLFPPKPKDTLMISRTPEVTCVVVAVSHEDPEVKFNWYVDGVEVHNAKTKPREEQYNSTYRVVSVLTVLHQDWLNGKEYKCKVSNKALPAPIEKTISKAKGQPREPQVYTLPPSREEMTKNQVSLTCLVKGFYPSDIAVEWESNGQPENNYKTTPPVLDSDGSFFLYSRLTVDKSRWQQGNVFSCSVMHEALHNHYTQKSLSLSPG
light 2: EIVLTQSPGTLSLSPGERATFSCRSSHSIRSRRVAWYQHKPGQAPRLVIHGVSNRASGISDRFSGSGSGTDFTLTITRVEPEDFALYYCQVYGASSYTFGQGTKLERKRTVAAPSVFIFPPSDEQLKSGTASVVCLLNNFYPREAKVQWKVDNALQSGNSQESVTEQDSKDSTYSLSSTLTLSKADYEKHKVYACEVTHQGLSSPVTKSFNRGEC
notes: Fab-arm exchange of IgG1-DR4-FEAL and IgG1-b12-FEAR

Assays:
[1] = molecular target: T1, human FAPα (Fibroblast activation …); experiment: flow cytometry, human lung fibroblasts, n = 2
Experimental: Human lung fibroblasts and CAFs (50,000 cells/well) were seeded in 96-Well round bottom plates (Greiner Bio-one, Cat #650101). Antibody dilutions were prepared using fluorescence-activated cell sorting (FACS) buffer, consisting of phosphate buffer saline (PBS, Lonza, Cat #BE17-517Q)+1% Bovine Serum Albumin (BSA, Roche, Cat #10735086001)+0.02% Sodium Azide (Bio-World, Cat #41920044-3). Plates were centrifuged, supernatant was removed, cells were resuspended in 50 μL of human Fc Block (BD, Cat #564220, diluted 1:100 in FACS buffer) and 50 μL of viability stain TO-PRO-3 Iodide (Thermo Fisher, Cat #T3605, diluted 1: 25,000 in FACS buffer), and incubated for 15 min at 4° C. Plates were washed three times with FACS buffer. Plates were centrifuged, supernatant was removed, cells were resuspended in 50 μL of antibody dilutions (concentration range 90-0.0005 μg/mL, three-fold dilution steps using FACS buffer) of BisG1-FAPα-FERL/DR4-FERR, BisG1-FAPα-FERL/b12-FERR, BisG1-b12-FERL/b12-FERR (top six concentrations only for CAFs culture) or IgG1-FAPα-FERL (top four concentrations only for CAFs culture) and incubated for 30 min at 4° C. Cells were washed three times with FACS buffer and resuspended in 50 μL of Fluorescein isothiocyanate (FITC)-labeled polyclonal antibody goat anti-mouse IgG1 (Jackson Immuno Research, Cat #109-096-097, diluted 1:100 in FACS buffer). […] Antibody binding to viable cells (TO-PRO-3 negative) was analyzed by flow cytometry on a FACSCelesta™ (BD biosciences) and data were processed using FlowJo_v10.8.1 (FlowJo LLC). Geomean fluorescence intensity, gMFI, was determined and visualized using GraphPad Prism. Binding curves were analyzed using nonlinear regression analysis. […]
(§1) Binding of FAPα-targeting monoclonal antibody clones, IgG1-FAPα-FEAL and IgG1-FAP5-FEAL, and bispecific antibodies carrying a binding arm derived from the two FAPα-binding clones (BisG1-FAPα-FEAL/b12-FEAR and BisG1-FAP5-FEAL/b12-FEAR) to human lung fibroblasts, which endogenously express FAPα, was compared and analyzed by flow cytometry.

[2] = molecular target: T1, human FAPα (Fibroblast activation …); experiment: flow cytometry, human lung fibroblasts, n = 1
Experimental: Human lung fibroblasts and CAFs (50,000 cells/well) were seeded in 96-Well round bottom plates (Greiner Bio-one, Cat #650101). Antibody dilutions were prepared using fluorescence-activated cell sorting (FACS) buffer, consisting of phosphate buffer saline (PBS, Lonza, Cat #BE17-517Q)+1% Bovine Serum Albumin (BSA, Roche, Cat #10735086001)+0.02% Sodium Azide (Bio-World, Cat #41920044-3). Plates were centrifuged, supernatant was removed, cells were resuspended in 50 μL of human Fc Block (BD, Cat #564220, diluted 1:100 in FACS buffer) and 50 μL of viability stain TO-PRO-3 Iodide (Thermo Fisher, Cat #T3605, diluted 1: 25,000 in FACS buffer), and incubated for 15 min at 4° C. Plates were washed three times with FACS buffer. Plates were centrifuged, supernatant was removed, cells were resuspended in 50 μL of antibody dilutions (concentration range 90-0.0005 μg/mL, three-fold dilution steps using FACS buffer) of BisG1-FAPα-FERL/DR4-FERR, BisG1-FAPα-FERL/b12-FERR, BisG1-b12-FERL/b12-FERR (top six concentrations only for CAFs culture) or IgG1-FAPα-FERL (top four concentrations only for CAFs culture) and incubated for 30 min at 4° C. Cells were washed three times with FACS buffer and resuspended in 50 μL of Fluorescein isothiocyanate (FITC)-labeled polyclonal antibody goat anti-mouse IgG1 (Jackson Immuno Research, Cat #109-096-097, diluted 1:100 in FACS buffer). After 30 min incubation at 4° C., cells were washed twice with FACS buffer and resuspended in FACS buffer. Antibody binding to viable cells (TO-PRO-3 negative) was analyzed by flow cytometry on a FACSCelesta™ (BD biosciences) and data were processed using FlowJo_v10.8.1 (FlowJo LLC). Geomean fluorescence intensity, gMFI, was determined and visualized using GraphPad Prism. Binding curves were analyzed using nonlinear regression analysis. The concentration (pg/mL) at which 50% of the maximal effect was observed (EC₅₀) was derived from the fitted curves.
as §1

[3] = molecular target: T3, human DR4 with death domain deletion on ExpiCHO-S cells (human); experiment: flow cytometry, ExpiCHO-S cells expressing human DR4, n = 2
Experimental: (§2) Binding of BisG1-FAPα-FERL/DR4-FERR, BisG1-DR4-FEAL/b12-FEAR and IgG1-DR4-FERR to DR4 of various species commonly used for nonclinical toxicology studies was assessed by flow cytometry using ExpiCHO-S cells transiently expressing DR4 from different animal species. In contrast to other species, rodents only express one DR which has highest homology with human DR5. Therefore, ExpiCHO-S cells transiently expressing rat and mouse DR protein were used instead. All DR constructs lack the intracellular DD to avoid apoptosis of transfected cells upon DR(4) activation. IgG1-b12 was used as negative control.

[4] = molecular target: T3, human DR4 with death domain deletion on …; experiment: flow cytometry, ExpiCHO-S cells expressing human DR4, average ± SEM
[5] = molecular target: T2, cynomolgus monkey DR4 with death domain …; experiment: flow cytometry on ExpiCHO-S cells transiently expressing cynomolgus monkey DR4 (death domain deleted), gMFI PE
[6] = molecular target: T3, human DR4 with death domain deletion on …; experiment: flow cytometry, ExpiCHO-S cells expressing human DR4, n = 1
Experimental: as §2

Row | Binder | EC50 [1] | EC50 [2] | EC50 [3] | EC50 [4] | EC50 (read off the curve) [5] | EC50 [6]
1 | B1 | 0.2 µg/mL | 0.15 µg/mL |  |  |  | 
2 | B2 |  |  | 1.23 µg/mL | 1.12 µg/mL | ~1 µg/mL | 1.02 µg/mL
